Measured values taken from US20250034275A1 (CHIA TAI TIANQING PHARMACEUTICAL GROUP, published 2025).

T1: human Trop-2 (on the surface of human cell lines) (human, UniProt P09758 27-323)
T1 sequence: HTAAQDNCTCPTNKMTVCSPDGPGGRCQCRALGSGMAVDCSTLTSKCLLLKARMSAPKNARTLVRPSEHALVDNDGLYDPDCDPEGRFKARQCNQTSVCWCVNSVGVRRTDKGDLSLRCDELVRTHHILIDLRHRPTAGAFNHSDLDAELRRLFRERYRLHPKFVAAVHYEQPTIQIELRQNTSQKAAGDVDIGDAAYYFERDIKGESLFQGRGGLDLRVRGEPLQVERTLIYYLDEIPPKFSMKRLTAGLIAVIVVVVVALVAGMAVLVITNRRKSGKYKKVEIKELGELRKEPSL

T2: human Trop-2-His (human, UniProt P09758 27-274, limits assumed)
T2 construct: by analogy with the macaque construct it is probably the extracellular domain with a His tag; also called Trop-2-His protein
T2 sequence: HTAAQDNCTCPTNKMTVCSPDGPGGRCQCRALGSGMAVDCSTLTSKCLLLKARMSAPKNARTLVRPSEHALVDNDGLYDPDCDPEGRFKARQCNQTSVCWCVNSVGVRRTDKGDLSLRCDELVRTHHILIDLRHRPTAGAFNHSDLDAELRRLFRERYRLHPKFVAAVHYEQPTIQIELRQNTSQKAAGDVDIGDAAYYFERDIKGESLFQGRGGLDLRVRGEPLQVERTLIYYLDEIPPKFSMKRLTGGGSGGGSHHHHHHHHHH

T3: Macaque Trop-2-His (macaque, UniProt P09758 27-274 (human entry))
T3 construct: Extracellular domain of macaque Trop-2 recombinantly linked to His; also called monkey Trop-2-His protein; monkey Trop-2
T3 chain: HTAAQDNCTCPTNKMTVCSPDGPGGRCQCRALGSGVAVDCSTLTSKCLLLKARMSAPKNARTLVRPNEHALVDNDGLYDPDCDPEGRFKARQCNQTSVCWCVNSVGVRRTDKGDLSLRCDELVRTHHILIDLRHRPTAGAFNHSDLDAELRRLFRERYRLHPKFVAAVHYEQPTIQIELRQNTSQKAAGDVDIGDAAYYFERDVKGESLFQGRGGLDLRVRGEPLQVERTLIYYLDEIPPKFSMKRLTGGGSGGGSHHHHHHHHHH

B1: hz-Ab21-2.2 (antibody, human IgG1, kappa, V domains shown)
VH: EVQLVESGGGLVKPGGSLRLSCAASGFTLRNYGVHWVRQAPGKGLEWVGVIWSSGTTDYNAAFISRFTISKDNSKNTLYLQMNSLKTEDTAVYYCTRDGDYDYYTMDYWGQGTLVTVSS
VL: EIVLTQSPATLSLSPGERATLSCRASKSVSTSAYSYIHWYQQKPGQPPRLLIYLTSNLESGIPARFSGSGSGTDFTLTISSLEPEDFAVYYCQHSRELPYTFGQGTKVEIKR
notes: Humanized antibody
B2: hz-Ab35-2.1 (antibody, human IgG1, kappa, V domains shown)
VH: QVQLVQSGAEVKKPGASVKVSCKASGYTFTSSDINWVRQRPGQGLEWMGWIYPRDGSKKYAQKFQGRVTMTVDTSTSTVYMELSSLRSEDTAVYYCATRFATVVSNYGLDPWGQGTLVTVSS
VL: EIVLTQSPATLSLSPGERATLSCSASSSVNYIYWYQRKPGQAPRLLIYDTSNLASGIPARFSGSGSGTDYTLTISSLEPEDFAVYYCQQWNSYPLTFGQGTKVEIKR
notes: Humanized antibody
B3: hz-Ab35-2.2 (antibody, human IgG1, kappa, V domains shown)
VH: QVQLVQSGAEVKKPGASVKVSCKASGYTFTSSDINWVRQRPGQGLEWMGWIYPRDGSKKYNEKFKGRVTMTVDTSTSTVYMELSSLRSEDTAVYYCARRFATVVSNYGLDPWGQGTLVTVSS
VL: EIVLTQSPATLSLSPGERATLSCSASSSVNYIYWYQRKPGQAPRLLIYDTSNLASGIPARFSGSGSGTDYTLTISSLEPEDFAVYYCQQWNSYPLTFGQGTKVEIKR
notes: Humanized antibody
B4: hz-Ab35-2.3 (antibody, human IgG1, kappa, V domains shown)
VH: QVQLVQSGAEVKKPGASVKVSCKASGYTFTSSDINWVRQRPGQGLEWMGWIYPRDGSKKYNEKFKGRVTMTVDTSTSTVYMELSSLRSEDTAVYYCATRFATVVSNYGLDPWGQGTLVTVSS
VL: EIVLTQSPATLSLSPGERATLSCSASSSVNYIYWYQRKPGQAPRLLIYDTSNLASGIPARFSGSGSGTDYTLTISSLEPEDFAVYYCQQWNSYPLTFGQGTKVEIKR
notes: Humanized antibody

Assays:
[1] = target: human Trop-2 (on the surface of human cell lines) (human) (UniProt P09758); assay: flow cytometry, PC-3 cells, isotype control at 3 ug/mL (background)
[2] = target: human Trop-2 (on the surface of human cell lines) (human) (UniProt P09758); assay: flow cytometry, HCC38 cells, isotype control at 3 ug/mL (background)
[3] = target: human Trop-2 (on the surface of human cell lines) (human) (UniProt P09758); assay: flow cytometry, HUVEC cells, isotype control at 3 ug/mL (background)
[4] = target: human Trop-2 (on the surface of human cell lines) (human) (UniProt P09758); assay: flow cytometry, Capan-1 cells, isotype control at 3 ug/mL (background)
[5] = target: human Trop-2 (on the surface of human cell lines) (human) (UniProt P09758); assay: flow cytometry, HCC1806 cells, isotype control at 3 ug/mL (background)
[6] = target: human Trop-2 (on the surface of human cell lines) (human) (UniProt P09758); assay: flow cytometry, OVCAR-3 cells, isotype control at 3 ug/mL (background)
[7] = target: human Trop-2 (on the surface of human cell lines) (human) (UniProt P09758); assay: flow cytometry, NCI-H322 cells, isotype control at 3 ug/mL (background)
[8] = target: T1, human Trop-2 (on the surface of human …); assay: cell-based or functional assay
[9] = target: T1, human Trop-2 (on the surface of human …); assay: cell-based or functional assay; remark: listed apart in the source
[10] = target: T1, human Trop-2 (on the surface of human …); assay: flow cytometry, HCC38 cells
Method: (§1) Tumor cells expressing Trop-2 were prepared into a cell suspension (0.5-1×10⁶ cells/mL) using the FACS buffer (Miltenyi Biotec, 130-091-221), and the cell suspension was added to a 96-well V-bottom plate at 100 μL/well. After centrifugation and removal of the supernatant, the test antibodies diluted with the FACS buffer to different concentrations (0.006 nM-100 nM) were each added at 50 μL/well. The mixture was incubated in the dark in a 4° C. refrigerator for 1 h. The plate was then washed 3 times with the FACS buffer by centrifugation at 300 g, and Alexa Fluor 488 goat anti-human IgG (H+L) (Bio-legend, 409304, 1:500 dilution) at working concentration was added. The mixture was incubated in the dark in a 4° C. refrigerator for 40 min. The plate was then washed 3 times with the FACS buffer by centrifugation at 300 g, the geometric mean fluorescence intensity (MFI) was measured on a Sartorius iQue3 flow cytometer, and the binding EC₅₀ values of the antibodies for tumor cells with different Trop-2 expression levels were calculated

[11] = target: T1, human Trop-2 (on the surface of human …); assay: flow cytometry, HCC1806 cells
Method: as §1

[12] = target: T1, human Trop-2 (on the surface of human …); assay: flow cytometry, OVCAR-3 cells
Method: as §1

human Trop-2-His [13] = target: T2, human Trop-2-His; assay: ELISA, plate-coated human Trop-2-His
Method: (§2) After the liquid was discarded, 2% BSA (SIGMA, B2064-100G) diluted with PBS was added at 300 μL/well for blocking, and the mixture was incubated at 37° C. for 2 h. After the blocking was completed, the blocking buffer was discarded, the plate was washed 3 times with PBST buffer (pH 7.4 PBS containing 0.1% tween-20), the antibody solution diluted in a gradient was added at 100 μL/well, and the mixture was incubated at 37° C. for 1 h. After the incubation was completed, the plate was washed 3 times with PBST, the goat anti-human IgG (H+L) (JacksonImmunoResearch, 109-035-098, 1:5000 dilution) was added at 100 μL/well, and the mixture was incubated at 37° C. for 1 h. After the plate was washed 3 times with PBST, a TMB chromogenic substrate (TIANGEN, PA107-01) was added at 100 μL/well. The mixture was incubated at room temperature for 10-15 min, and then 1 M H₂SO₄ was added at 50 μL/well to terminate the reaction. The absorbance values at 450 nm were taken using a microplate reader. The binding curves of antibodies for antigen were fitted using software, and the EC₅₀ values were calculated.

Macaque Trop-2-His = target: T3, Macaque Trop-2-His; assay: ELISA, plate-coated macaque Trop-2-His
Method: as §2, with “times with the PBST buffer” for “times with PBST buffer”

human Trop-2-His [14] = target: T2, human Trop-2-His; assay: SPR (Biacore 8K), antibody captured, Trop-2-His as analyte
Excerpt: The affinity of antibodies for human Trop-2-His was detected in the form of antibody capturing. The antibody was affinity-captured by a CM5 (Cat. #29149603, GE) biosensor chip conjugated with an anti-human IgG antibody (from human antibody capture kit, Cat. #29234600, GE), then the antigen human Trop-2-His flowed on the surface of the chip, and a Biacore 8K instrument was used for detecting reaction signals in real time to obtain association and dissociation curves. After dissociation was completed for each assay cycle, the chip was washed clean and regenerated with a regeneration buffer, 3M MgCl₂ (from human antibody capture kit, Cat. #29234600, GE). The association and dissociation curves were collected by Biacore 8K Control Software 3.0 in real time, and the data were analyzed by Biacore Insight Evaluation Software 3.0. The data were fitted using a Langmuir 1:1 model after double subtraction (namely, in each cycle, the contrast channel signal was subtracted from the experimental channel signal, and the sample signal was subtracted from the blank signal), and the association rate constant Ka, the dissociation rate constant Kd, and the equilibrium constant KD were calculated.

Molecule | ADCC reporter (Jurkat-CD16a v158-NFAT-luciferase), target cell H322, EC50 [8] | ADCC reporter (Jurkat-CD16a v158-NFAT-luciferase), target cell HCC1806, EC50 [8] | ADCC, PBMC killing (LDH), H322, EC50 [9] | ADCC, PBMC killing (LDH), H322, Maximum killing (%) [9] | ADCC, PBMC killing (LDH), HCC1806, EC50 [9] | ADCC, PBMC killing (LDH), HCC1806, Maximum killing (%) [9] | EC50 [10] | EC50 [11] | EC50 [12] | EC50 (human Trop-2-His [13]) | EC50 (Macaque Trop-2-His) | Kd (human Trop-2-His [14]) | koff (human Trop-2-His [14]) | kon (human Trop-2-His [14]) | further results
human IgG1 control antibody | – | – | – | – | – | – | – | – | – | – | – | – | – | – | MFI [1]: 8920; MFI [2]: 32400; MFI [3]: 20500; MFI [4]: 65600; MFI [5]: 16200; MFI [6]: 11800; MFI [7]: 21300
B1 | 0.15 nM | 0.26 nM | 0.07 nM | 51.6% | 0.18 nM | 40.6% | 0.66 nM | 1.18 nM | 0.8 nM | 0.223 nM | 0.081 nM | 1.33 nM | 0.000611 s⁻¹ | 460000 M⁻¹ s⁻¹ | –
B2 | 0.1 nM | 0.23 nM | 0.02 nM | 51.3% | 0.03 nM | 35.2% | 0.89 nM | 0.76 nM | 0.9 nM | 0.055 nM | 0.056 nM | 0.444 nM | 0.000194 s⁻¹ | 436000 M⁻¹ s⁻¹ | –
B3 | 0.11 nM | 0.26 nM | 0.01 nM | 51.4% | 0.02 nM | 35.9% | 0.91 nM | 0.58 nM | 0.88 nM | 0.054 nM | 0.05 nM | 8.82 nM | 0.00357 s⁻¹ | 405000 M⁻¹ s⁻¹ | –
B4 | 0.11 nM | 0.21 nM | 0.02 nM | 50.3% | 0.03 nM | 35.7% | 0.91 nM | 0.61 nM | 0.74 nM | 0.065 nM | 0.031 nM | 0.675 nM | 0.000281 s⁻¹ | 416000 M⁻¹ s⁻¹ | –
